Columns and labels:
[1] = test system: Pro-CE derived from a horseshoe crab hemocyte extract (DS-10AII fraction)
[2] = test system: T1, recombinant Pro-CE (pro-clotting enzyme, His-Tag at the C-terminus, expressed in expresSF+ insect cells)
T1 sequence: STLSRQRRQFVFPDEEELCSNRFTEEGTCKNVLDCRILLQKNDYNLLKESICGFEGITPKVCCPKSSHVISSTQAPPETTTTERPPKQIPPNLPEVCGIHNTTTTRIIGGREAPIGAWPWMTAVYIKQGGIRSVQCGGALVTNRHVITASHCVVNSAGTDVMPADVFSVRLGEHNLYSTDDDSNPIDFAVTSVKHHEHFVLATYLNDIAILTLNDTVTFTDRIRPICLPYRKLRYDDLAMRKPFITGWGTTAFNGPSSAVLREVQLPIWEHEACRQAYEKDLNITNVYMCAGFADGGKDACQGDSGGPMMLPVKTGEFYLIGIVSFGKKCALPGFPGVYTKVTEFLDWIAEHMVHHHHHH

[3] = molecular target: T2, recombinant Pro-CE (pro-clotting enzyme, His-Tag at the C-terminus, expressed in expresSF+ insect cells)
T2 chain: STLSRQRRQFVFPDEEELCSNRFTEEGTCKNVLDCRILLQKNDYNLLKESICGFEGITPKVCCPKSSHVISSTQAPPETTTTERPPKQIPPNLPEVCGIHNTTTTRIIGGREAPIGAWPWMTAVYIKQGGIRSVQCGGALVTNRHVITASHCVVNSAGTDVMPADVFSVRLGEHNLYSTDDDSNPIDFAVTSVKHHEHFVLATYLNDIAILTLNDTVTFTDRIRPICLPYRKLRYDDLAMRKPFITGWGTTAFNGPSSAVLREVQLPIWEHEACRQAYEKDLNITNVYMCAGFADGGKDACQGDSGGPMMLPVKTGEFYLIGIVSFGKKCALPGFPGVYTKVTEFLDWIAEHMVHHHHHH

[4] = molecular target: T3, recombinant factor B (His-Tag at the C-terminus; culture supernatant, MOI = 0.1, 96 h)
T3 chain: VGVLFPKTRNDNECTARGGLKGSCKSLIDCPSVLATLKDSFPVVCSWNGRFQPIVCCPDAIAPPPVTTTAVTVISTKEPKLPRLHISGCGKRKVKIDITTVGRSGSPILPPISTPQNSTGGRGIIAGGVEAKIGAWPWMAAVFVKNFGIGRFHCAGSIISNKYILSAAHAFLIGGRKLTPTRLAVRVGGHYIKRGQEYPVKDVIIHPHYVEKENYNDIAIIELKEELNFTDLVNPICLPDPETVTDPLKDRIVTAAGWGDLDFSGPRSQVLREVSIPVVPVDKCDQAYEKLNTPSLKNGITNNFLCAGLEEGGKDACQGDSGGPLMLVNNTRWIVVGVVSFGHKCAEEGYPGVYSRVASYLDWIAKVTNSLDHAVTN

Molecule: Factor G derived from a horseshoe crab hemocyte extract (DS-3GII fraction)
- Reactivity, Average; CSBG 0 ng/mL (A 405 to 492 nm) [1]: 0.058
- Reactivity, Average; CSBG 1 ng/mL (A 405 to 492 nm) [1]: 0.437
- Reactivity, Average; CSBG 10 ng/mL (A 405 to 492 nm) [1]: 0.986
- Reactivity, endpoint assay, Boc-Leu-Gly-Arg-pNA; CSBG 0 ng/mL, first reading (A 405 to 492 nm) [1]: 0.056
- Reactivity, endpoint assay, Boc-Leu-Gly-Arg-pNA; CSBG 0 ng/mL, second reading (A 405 to 492 nm) [1]: 0.06
- Reactivity, endpoint assay, Boc-Leu-Gly-Arg-pNA; CSBG 1 ng/mL, first reading (A 405 to 492 nm) [1]: 0.44
- Reactivity, endpoint assay, Boc-Leu-Gly-Arg-pNA; CSBG 1 ng/mL, second reading (A 405 to 492 nm) [1]: 0.434
- Reactivity, endpoint assay, Boc-Leu-Gly-Arg-pNA; CSBG 10 ng/mL, first reading (A 405 to 492 nm) [1]: 0.969
- Reactivity, endpoint assay, Boc-Leu-Gly-Arg-pNA; CSBG 10 ng/mL, second reading (A 405 to 492 nm) [1]: 1
- Reactivity, ΔA; CSBG 1 ng/mL (A 405 to 492 nm) [1]: 0.379
- Reactivity, ΔA; CSBG 10 ng/mL (A 405 to 492 nm) [1]: 0.928
- Reactivity, Average; CSBG 0 ng/mL (A 405 to 492 nm) [2]: 0.05
- Reactivity, Average; CSBG 1 ng/mL (A 405 to 492 nm) [2]: 0.484
- Reactivity, Average; CSBG 10 ng/mL (A 405 to 492 nm) [2]: 0.987
- Reactivity, endpoint assay, Boc-Leu-Gly-Arg-pNA; CSBG 0 ng/mL, first reading (A 405 to 492 nm) [2]: 0.051
- Reactivity, endpoint assay, Boc-Leu-Gly-Arg-pNA; CSBG 0 ng/mL, second reading (A 405 to 492 nm) [2]: 0.049
- Reactivity, endpoint assay, Boc-Leu-Gly-Arg-pNA; CSBG 1 ng/mL, first reading (A 405 to 492 nm) [2]: 0.48
- Reactivity, endpoint assay, Boc-Leu-Gly-Arg-pNA; CSBG 1 ng/mL, second reading (A 405 to 492 nm) [2]: 0.487
- Reactivity, endpoint assay, Boc-Leu-Gly-Arg-pNA; CSBG 10 ng/mL, first reading (A 405 to 492 nm) [2]: 0.988
- Reactivity, endpoint assay, Boc-Leu-Gly-Arg-pNA; CSBG 10 ng/mL, second reading (A 405 to 492 nm) [2]: 0.986
- Reactivity, ΔA; CSBG 1 ng/mL (A 405 to 492 nm) [2]: 0.434
- Reactivity, ΔA; CSBG 10 ng/mL (A 405 to 492 nm) [2]: 0.937
- enzymatic activity with DS-3GII fraction and BG [2]: the recombinant Pro-CE exhibited an enzymatic activity almost equivalent to that of Pro-CE derived from a horseshoe crab hemocyte extract

Molecule: recombinant factor G (culture supernatant; alpha-subunit:beta-subunit = 2:1)
- Reactivity, Average; CSBG 0 ng/mL [2]: 0.078
- Reactivity, Average; CSBG 1 ng/mL [2]: 0.139
- Reactivity, Average; CSBG 10 ng/mL [2]: 0.532
- Reactivity, endpoint assay, Boc-Leu-Gly-Arg-pNA; CSBG 0 ng/mL, first reading [2]: 0.079
- Reactivity, endpoint assay, Boc-Leu-Gly-Arg-pNA; CSBG 0 ng/mL, second reading [2]: 0.076
- Reactivity, endpoint assay, Boc-Leu-Gly-Arg-pNA; CSBG 1 ng/mL, first reading [2]: 0.14
- Reactivity, endpoint assay, Boc-Leu-Gly-Arg-pNA; CSBG 1 ng/mL, second reading [2]: 0.138
- Reactivity, endpoint assay, Boc-Leu-Gly-Arg-pNA; CSBG 10 ng/mL, first reading [2]: 0.543
- Reactivity, endpoint assay, Boc-Leu-Gly-Arg-pNA; CSBG 10 ng/mL, second reading [2]: 0.52
- Reactivity, ΔA; CSBG 1 ng/mL [2]: 0.061
- Reactivity, ΔA; CSBG 10 ng/mL [2]: 0.454
- hydrolysis of Boc-Leu-Gly-Arg-pNA in the complete reconstitution system with BG [2]: the same enzymatic activity as that of native factor LAL was found to be expressed

B1: recombinant factor B (His-Tag at the C-terminus; culture supernatant, MOI = 0.1, 96 h) (protein)
chain: VGVLFPKTRNDNECTARGGLKGSCKSLIDCPSVLATLKDSFPVVCSWNGRFQPIVCCPDAIAPPPVTTTAVTVISTKEPKLPRLHISGCGKRKVKIDITTVGRSGSPILPPISTPQNSTGGRGIIAGGVEAKIGAWPWMAAVFVKNFGIGRFHCAGSIISNKYILSAAHAFLIGGRKLTPTRLAVRVGGHYIKRGQEYPVKDVIIHPHYVEKENYNDIAIIELKEELNFTDLVNPICLPDPETVTDPLKDRIVTAAGWGDLDFSGPRSQVLREVSIPVVPVDKCDQAYEKLNTPSLKNGITNNFLCAGLEEGGKDACQGDSGGPLMLVNNTRWIVVGVVSFGHKCAEEGYPGVYSRVASYLDWIAKVTNSLDHAVTN
- Reactivity, Av.; sample (A) PCE + FB + FC (factor C also present), Et 0 ng/mL (A405 to 492 nm) [3]: 0.023
- Reactivity, Av.; sample (A) PCE + FB + FC (factor C also present), Et 100 ng/mL (A405 to 492 nm) [3]: 0.649
- Reactivity, Av.; sample (B) PCE + FB, Et 0 ng/mL (A405 to 492 nm) [3]: 0.023
- Reactivity, Av.; sample (B) PCE + FB, Et 100 ng/mL (A405 to 492 nm) [3]: 0.023
- Reactivity; sample (A) PCE + FB + FC (factor C also present), Et 0 ng/mL, first reading (A405 to 492 nm) [3]: 0.024
- Reactivity; sample (A) PCE + FB + FC (factor C also present), Et 0 ng/mL, second reading (A405 to 492 nm) [3]: 0.022
- Reactivity; sample (A) PCE + FB + FC (factor C also present), Et 100 ng/mL, first reading (A405 to 492 nm) [3]: 0.652
- Reactivity; sample (A) PCE + FB + FC (factor C also present), Et 100 ng/mL, second reading (A405 to 492 nm) [3]: 0.645
- Reactivity; sample (B) PCE + FB, Et 0 ng/mL, first reading (A405 to 492 nm) [3]: 0.023
- Reactivity; sample (B) PCE + FB, Et 0 ng/mL, second reading (A405 to 492 nm) [3]: 0.022
- Reactivity; sample (B) PCE + FB, Et 100 ng/mL, first reading (A405 to 492 nm) [3]: 0.022
- Reactivity; sample (B) PCE + FB, Et 100 ng/mL, second reading (A405 to 492 nm) [3]: 0.023
- hydrolysis of Boc-Leu-Gly-Arg-pNA in the complete reconstitution system with Et (factor C also present) [3]: cascade reaction of Et proceeds in a concentration-dependent manner through employment of recombinant factors C and B and recombinant Pro-CE in combination
- hydrolysis of Boc-Leu-Gly-Arg-pNA in the presence of Et at high concentration, without factor C [3]: in the samples containing recombinant Pro-CE and/or recombinant factor B, activation attributed to high concentration Et was not observed

B2: recombinant factor C (derived from Tachypleus rotundicauda), commercial element of PyroGene (product of Cambrex) (protein)
chain: KGVDLGLCDETRFECKCGDPGYVFNIPVKQCTYFYRWRPYCKPCDDLEAKDICPKYKRCQECKAGLDSCVTCPPNKYGTWCSGECQCKNGGICDQRTGACACRDRYEGVHCEILKGCPLLPSDSQVQEVRNPPDNPQTIDYSCSPGFKLKGMARISCLPNGQWSNFPPKCIRECAMVSSPEHGKVNALSGDMIEGATLRFSCDSPYYLIGQETLTCQGNGQWNGQIPQCKNLVFCPDLDPVNHAEHKVKIGVEQKYGQFPQGTEVTYTCSGNYFLMGFDTLKCNPDGSWSGSQPSCVKVADREVDCDSKAVDFLDDVGEPVRIHCPAGCSLTAGTVWGTAIYHELSSVCRAAIHAGKLPNSGGAVHVVNNGPYSDFLGSDLNGIKSEELKSLARSFRFDYVRSSTAGKSGCPDGWFEVDENCVYVTSKQRAWERAQGVCTNMAARLAVLDKDVIPNSLTETLRGKGLTTTWIGLHRLDAEKPFIWELMDRSNVVLNDNLTFWASGEPGNETNCVYMDIQDQLQSVWKTKSCFQPSSFACMMDLSDRNKAKCDDPGSLENGHATLHGQSIDGFYAGSSIRYSCEVLHYLSGTETVTCTTNGTWSAPKPRCIKVITCQNPPVPSYGSVEIKPPSRTNSISRVGSPFLRLPRLPLPLARAAKPPPKPRSSQPSTVDLASKVKLPEGHYRVGSRAIYTCESRYYELLGSQGRRCDSNGNWSGRPASCIPVCGRSDSPRSPFIWNGNSTEIGQWPWQAGISRWLADHNMWFLQCGGSLLNEKWIVTAAHCVTYSATAEIIDPNQFKMYLGKYYRDDSRDDDYVQVREALEIHVNPNYDPGNLNFDIALIQLKTPVTLTTRVQPICLPTDITTREHLKEGTLAVVTGWGLNENNTYSETIQQAVLPVVAASTCEEGYKEADLPLTVTENMFCAGYKKGRYDACSGDSGGPLVFADDSRTERRWVLEGIVSWGSPSGCGKANQYGGFTKVNVFLSWIRQFI
- Reactivity, Av.; sample (C) PCE + FC, Et 0 ng/mL (A405 to 492 nm) [3]: 0.02
- Reactivity, Av.; sample (C) PCE + FC, Et 100 ng/mL (A405 to 492 nm) [3]: 0.03
- Reactivity; sample (C) PCE + FC, Et 0 ng/mL, first reading (A405 to 492 nm) [3]: 0.02
- Reactivity; sample (C) PCE + FC, Et 0 ng/mL, second reading (A405 to 492 nm) [3]: 0.02
- Reactivity; sample (C) PCE + FC, Et 100 ng/mL, first reading (A405 to 492 nm) [3]: 0.029
- Reactivity; sample (C) PCE + FC, Et 100 ng/mL, second reading (A405 to 492 nm) [3]: 0.03
- Reactivity, Av.; sample (D) FB + FC, Et 0 ng/mL (A405 to 492 nm) [4]: 0.025
- Reactivity, Av.; sample (D) FB + FC, Et 100 ng/mL (A405 to 492 nm) [4]: 0.033
- Reactivity; sample (D) FB + FC, Et 0 ng/mL, first reading (A405 to 492 nm) [4]: 0.024
- Reactivity; sample (D) FB + FC, Et 0 ng/mL, second reading (A405 to 492 nm) [4]: 0.025
- Reactivity; sample (D) FB + FC, Et 100 ng/mL, first reading (A405 to 492 nm) [4]: 0.032
- Reactivity; sample (D) FB + FC, Et 100 ng/mL, second reading (A405 to 492 nm) [4]: 0.034
- hydrolysis of Boc-Leu-Gly-Arg-pNA in the complete reconstitution system with Et (Pro-CE also present) [4]: cascade reaction of Et proceeds in a concentration-dependent manner through employment of recombinant factors C and B and recombinant Pro-CE in combination

From patent US20090208995
